# Measured values reported in article PMC8373075 (Nucleic Acids Research, 2021).
# Target: T1, FLAG-CTIF-F460A (human, UniProt O43310 1-598, F460A)
# T1 sequence (looked up): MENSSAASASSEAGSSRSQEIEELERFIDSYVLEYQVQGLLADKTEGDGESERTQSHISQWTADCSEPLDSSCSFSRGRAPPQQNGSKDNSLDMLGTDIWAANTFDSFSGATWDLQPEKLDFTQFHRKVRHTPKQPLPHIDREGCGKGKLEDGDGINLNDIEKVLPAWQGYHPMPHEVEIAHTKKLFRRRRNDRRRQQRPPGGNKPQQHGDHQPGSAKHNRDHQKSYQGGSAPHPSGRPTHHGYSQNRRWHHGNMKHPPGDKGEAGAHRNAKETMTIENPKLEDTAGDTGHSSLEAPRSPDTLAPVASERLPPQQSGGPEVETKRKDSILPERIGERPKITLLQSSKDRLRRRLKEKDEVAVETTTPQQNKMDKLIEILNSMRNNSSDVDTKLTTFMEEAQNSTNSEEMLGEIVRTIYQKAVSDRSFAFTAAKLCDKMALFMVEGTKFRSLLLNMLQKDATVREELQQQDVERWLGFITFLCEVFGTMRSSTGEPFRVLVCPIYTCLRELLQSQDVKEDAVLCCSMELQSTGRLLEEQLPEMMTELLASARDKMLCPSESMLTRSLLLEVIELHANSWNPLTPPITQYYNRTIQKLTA
# Assay: co-IP
binder,measurement,value
"endogenous CBP80 (natural protein, human (endogenous in HEK293T), UniProt Q09161 1-790, looked up) MSRRRHSDENDGGQPHKRRKTSDANETEDHLESLICKVGEKSACSLESNLEGLAGVLEADLPNYKSKILRLLCTVARLLPEKLTIYTTLVGLLNARNYNFGGEFVEAMIRQLKESLKANNYNEAVYLVRFLSDLVNCHVIAAPSMVAMFENFVSVTQEEDVPQVRRDWYVYAFLSSLPWVGKELYEKKDAEMDRIFANTESYLKRRQKTHVPMLQVWTADKPHPQEEYLDCLWAQIQKLKKDRWQERHILRPYLAFDSILCEALQHNLPPFTPPPHTEDSVYPMPRVIFRMFDYTDDPEGPVMPGSHSVERFVIEENLHCIIKSHWKERKTCAAQLVSYPGKNKIPLNYHIVEVIFAELFQLPAPPHIDVMYTTLLIELCKLQPGSLPQVLAQATEMLYMRLDTMNTTCVDRFINWFSHHLSNFQFRWSWEDWSDCLSQDPESPKPKFVREVLEKCMRLSYHQRILDIVPPTFSALCPANPTCIYKYGDESSNSLPGHSVALCLAVAFKSKATNDEIFSILKDVPNPNQDDDDDEGFSFNPLKIEVFVQTLLHLAAKSFSHSFSALAKFHEVFKTLAESDEGKLHVLRVMFEVWRNHPQMIAVLVDKMIRTQIVDCAAVANWIFSSELSRDFTRLFVWEILHSTIRKMNKHVLKIQKELEEAKEKLARQHKRRSDDDDRSSDRKDGVLEEQIERLQEKVESAQSEQKNLFLVIFQRFIMILTEHLVRCETDGTSVLTPWYKNCIERLQQIFLQHHQIIQQYMVTLENLLFTAELDPHILAVFQQFCALQA",fold change of the co-immunoprecipitated amount against the IP of CTIF-WT,~2.8 fold
